Test results published in patent publication US20100317598A1 (University of California, published 2010).

Legend:
p53 = p53 (human, UniProt P04637 1-393); assay: cell-based or functional assay
cytochrome C = cytochrome C (human, UniProt P99999 2-105); assay: immunopurification of cytochrome C from transfected HBL-100 cells, quantified immunoblot for APAF-1
Sequence of cytochrome C (P99999 2-105 limits assumed): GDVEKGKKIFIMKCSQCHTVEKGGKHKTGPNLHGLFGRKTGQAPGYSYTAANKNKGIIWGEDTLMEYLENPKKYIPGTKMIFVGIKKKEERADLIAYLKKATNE
Procedure: Immunoblots were quantified using a Kodak 4000 Imaging Station and software. […] Values were obtained from three independent experiments.
HBL-100 and MCF-7 cells were exposed to UV light (6,600 microwatt seconds per square centimeter), or treated with adriamycin (0.2 μg ml⁻¹) for 24 h. […] Immunoblots shown were quantified on a Kodak 4000 Imaging Station and software.

Sequence of p53 (P04637 whole entry): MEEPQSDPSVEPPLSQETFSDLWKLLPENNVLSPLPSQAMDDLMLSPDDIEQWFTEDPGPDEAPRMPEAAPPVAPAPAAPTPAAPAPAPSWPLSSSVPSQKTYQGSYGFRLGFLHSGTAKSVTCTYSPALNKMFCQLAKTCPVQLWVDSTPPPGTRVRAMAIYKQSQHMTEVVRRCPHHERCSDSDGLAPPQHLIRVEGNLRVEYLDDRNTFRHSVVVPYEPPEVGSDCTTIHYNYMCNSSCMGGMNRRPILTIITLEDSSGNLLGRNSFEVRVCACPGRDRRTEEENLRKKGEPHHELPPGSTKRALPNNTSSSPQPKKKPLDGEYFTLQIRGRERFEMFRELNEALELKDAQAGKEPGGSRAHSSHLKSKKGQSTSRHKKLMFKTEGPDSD

expression of p21 (immunoblot of immunopurified p21), HBL-100 cells (p53)	percentage of cells in apoptosis (annexin-V-FITC binding), HBL-100 cells (p53)	fold increase of APAF-1 associated to cytochrome C (cells expressing BRCA1 (772-1292) against cells expressing control BRCA1 wt or BRCA1 (772-1036)) (cytochrome C)	Binder
5 fold	> 10 fold		HA-tag-BRCA1 (772-1292) (other, not shown: small tags and cut ends) VPGTDYGTQESISLLEVSTLGKAKTEPNKCVSQCAAFENPKGLIHGCSKDNRNDTEGFKYPLGHEVNHSRETSIEMEESELDAQYLQNTFKVSKRQSFAPFSNPGNAEEECATFSAHSGSLKKQSPKVTFECEQKEENQGKNESNIKPVQTVNITAGFPVVGQKDKPVDNAKCSIKGGSRFCLSSQFRGNETGLITPNKHGLLQNPYRIPPLFPIKSFVKTKCKKNLLEENFEEHSMSPEREMGNENIPSTVSTISRNNIRENVFKEASSSNINEVGSSTNEVGSSINEIGSSDENIQAELGRNRGPKLNAMLRLGVLQPEVYKQSLPGSNCKHPEIKKQEYEEVVQTVNTDFSPYLISDNLEQPMGSSHASQVCSETPDDLLDDGEIKEDTSFAENDIKESSAVFSKSVQKGELSRSPSPFTHTHLAQGYRRGAKKLESSEENLSSEDEELPCFQHLLFGKVNNIPSQSTRHSTVATECLSKNTEENLLSLKNSLNDCSNQVILAKASQEHHLSEETKCS
		3 fold	APAF-1 (other, human, UniProt O14727 1-1248, looked up) MDAKARNCLLQHREALEKDIKTSYIMDHMISDGFLTISEEEKVRNEPTQQQRAAMLIKMILKKDNDSYVSFYNALLHEGYKDLAALLHDGIPVVSSSSGKDSVSGITSYVRTVLCEGGVPQRPVVFVTRKKLVNAIQQKLSKLKGEPGWVTIHGMAGCGKSVLAAEAVRDHSLLEGCFPGGVHWVSVGKQDKSGLLMKLQNLCTRLDQDESFSQRLPLNIEEAKDRLRILMLRKHPRSLLILDDVWDSWVLKAFDSQCQILLTTRDKSVTDSVMGPKYVVPVESSLGKEKGLEILSLFVNMKKADLPEQAHSIIKECKGSPLVVSLIGALLRDFPNRWEYYLKQLQNKQFKRIRKSSSYDYEALDEAMSISVEMLREDIKDYYTDLSILQKDVKVPTKVLCILWDMETEEVEDILQEFVNKSLLFCDRNGKSFRYYLHDLQVDFLTEKNCSQLQDLHKKIITQFQRYHQPHTLSPDQEDCMYWYNFLAYHMASAKMHKELCALMFSLDWIKAKTELVGPAHLIHEFVEYRHILDEKDCAVSENFQEFLSLNGHLLGRQPFPNIVQLGLCEPETSEVYQQAKLQAKQEVDNGMLYLEWINKKNITNLSRLVVRPHTDAVYHACFSEDGQRIASCGADKTLQVFKAETGEKLLEIKAHEDEVLCCAFSTDDRFIATCSVDKKVKIWNSMTGELVHTYDEHSEQVNCCHFTNSSHHLLLATGSSDCFLKLWDLNQKECRNTMFGHTNSVNHCRFSPDDKLLASCSADGTLKLWDATSANERKSINVKQFFLNLEDPQEDMEVIVKCCSWSADGARIMVAAKNKIFLFDIHTSGLLGEIHTGHHSTIQYCDFSPQNHLAVVALSQYCVELWNTDSRSKVADCRGHLSWVHGVMFSPDGSSFLTSSDDQTIRLWETKKVCKNSAVMLKQEVDVVFQENEVMVLAVDHIRRLQLINGRTGQIDYLTEAQVSCCCLSPHLQYIAFGDENGAIEILELVNNRIFQSRFQHKKTVWHIQFTADEKTLISSSDDAEIQVWNWQLDKCIFLRGHQETVKDFRLLKNSRLLSWSFDGTVKVWNIITGNKEKDFVCHQGTVLSCDISHDATKFSSTSADKTAKIWSFDLLLPLHELRGHNGCVRCSAFSVDSTLLATGDDNGEIRIWNVSNGELLHLCAPLSEEGAATHGGWVTDLCFSPDGKMLISAGGYIKWWNVVTGESSQTFYTNGTNLKKIHVSPDFKTYVTVDNLGILYILQTLE
